Results: article doi:10.1101/2021.03.24.436879

Target: F-actin labeled at Cys-374 with fluorescein-5-maleimide (FMAL-actin) (rabbit) (UniProt P68135)
Experiment: FRET or BRET

## single-cysteine C0-C2^Cys225 of human cMyBP-C labeled with tetramethylrhodamine (TMR-C0-C2^Cys225) (domain or fragment)
  Kd: 1 µM
  donor lifetime τDA of FMAL-actin with 20 μM TMR-C0-C2^Cys225 (τD = 4.2 ns): 2 ns

## TMR-C0-C2^Cys225 of human cMyBP-C phosphorylated by PKA (domain or fragment)
  Kd: 3 µM
